From paper PMC9400459 (Science (New York, N.y.), 2022)

Biological target: SARS-CoV-2 receptor binding domain (SARS-CoV-2, UniProt P0DTC2)
Assay: cell-based or functional assay

B1: S2K146 human monoclonal antibody (antibody, V domains shown)
VH: QVQLVESGGVVVQPGGSLRLSCAASGFTFHDHTMHWVRQAPGKGLEWVSLITWNGGTIHYSDSVKGRFTISRDNSKNSLYLQMNSLRTEDTALYYCAKDLGRGGWYLPSDAWGQGTLVTVSS
VL: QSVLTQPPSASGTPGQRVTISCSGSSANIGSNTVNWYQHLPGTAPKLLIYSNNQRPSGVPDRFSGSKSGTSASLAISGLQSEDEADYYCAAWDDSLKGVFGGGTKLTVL
B1 was tested, and the “IC50 of neutralisation of authentic SARS-CoV-2 (isolate USA-WA1/2020, lineage A)” value was 10 ng/mL.
